Results on 4 proteins are retold here after publication PMC8211771.

In general, kcat refers to the maximal rate divided by the concentration of active sites. As usually defined, the kcat/Km is the turnover number divided by the Michaelis constant.

Substrate in the data set: O=[N+]([O-])c1ccc(O[C@@H]2O[C@H](CO)[C@H](O)[C@H](O)[C@H]2O)cc1
Put plainly: purified protein. The note with it: 100 mM phosphate-based buffer, 5 μM protein.

The mark [1] stands for this setting: pH 8.0, 20 °C (room temperature), Figure 6 legend gives 0.07 mM (±0.012), pH 8.0.
[2] abbreviates: pH 8.4, 20 °C (room temperature), Figure 6 legend gives 0.052 mM (±0.007), pH 8.4.
[3] abbreviates: pH 8.0, 20 °C (room temperature), Figure 6 legend gives 0.047 mM (±0.005), pH 8.0.
The mark [4] stands for this setting: pH 8.0, 20 °C (room temperature), Figure 6 legend gives 0.13 mM (±0.010), pH 8.0.

B1: BT2857N (Bacteroides thetaiotaomicron VPI-5482) (protein)
chain: CAEDMVKPIENDKDAPGTVQDVKTESLPGAVKFTYTLPSDPDLLYVLAKYTNKTGKVMEFRSSFYTNSVTVEGFGDTDTYKVELYTVDRSENRSQPQIVEVVPLTPPILSCYESLSMVSDFGGMTFEMDNKFKSDLAIYVCTPDELGDMVLAETFYSAREEIVYSVRGYDAVPRRFGIFLQDKYGNETDTLFTELTPIYERELDKT
Take B1: under setting [1], the kcat came to 0.046 s⁻¹ and the kcat/Km was 657 M⁻¹ s⁻¹.

B2: BT3158 (Bacteroides thetaiotaomicron VPI-5482) (protein)
chain: CEDVETHKPYGDGSGHAPGTVQVTSYEQIPGGVTLKFIAPTDEDLLYIKIKYTLDNGKEMEARASLYTDETTIEGFGNTNPKKLVISAVNKMEKEGEAIITEIVPGKPAYLTAIEEIEVNPTFGGIYIHTTNGGRNYLIFDVSTKDSKGNWNIEHTEYTSVKNIGFTLRGFSAEPHDFKVRVRDLYDNQSEEYLTTLTPLYEEKLDLTKFKTFYLANDIKMDNAGHTLESLFNGDHGLNSWNYAHGYDFNPSEFPVWFTFDMGQTAQLSRFTSWQRSMGGSYYYRAGAIKEWEVWGRSDLPSSDGSWDGWTKLADCESIKPSGWPTGSNSEEDITYASKGEEFEFLADIPPVRYIRFKILSTHDGAGLVVMQQLWFYGTPIQ
For the protein B2, under setting [2], the kcat amounted to 1.21 s⁻¹ and the kcat/Km was 23300 M⁻¹ s⁻¹.

B3: BT2857C (Bacteroides thetaiotaomicron VPI-5482) (protein)
chain: ELDKTKFREMYLQNDSRVDSYDGKMEYVWNGRISKDGDSGGVGLHTGTGTKDGPAVFTFDLGVLAKLSRFALWAIQDEKHFYNDMSPRRYEVWGCATEPNPDGSWDQWVKLLDMENVKPSGSPIGILTEDDIEAAKIGDQANVPLDMPRVRYIRIKCLKNWSNNYNICFTELTFWGND
In the case of B3, under setting [3], the kcat stood at 0.011 s⁻¹ and the kcat/Km turned out to be 234 M⁻¹ s⁻¹.

B4: BT2857 (Bacteroides thetaiotaomicron VPI-5482) (protein)
chain: CAEDMVKPIENDKDAPGTVQDVKTESLPGAVKFTYTLPSDPDLLYVLAKYTNKTGKVMEFRSSFYTNSVTVEGFGDTDTYKVELYTVDRSENRSQPQIVEVVPLTPPILSCYESLSMVSDFGGMTFEMDNKFKSDLAIYVCTPDELGDMVLAETFYSAREEIVYSVRGYDAVPRRFGIFLQDKYGNETDTLFTELTPIYERELDKTKFREMYLQNDSRVDSYDGKMEYVWNGRISKDGDSGGVGLHTGTGTKDGPAVFTFDLGVLAKLSRFALWAIQDEKHFYNDMSPRRYEVWGCATEPNPDGSWDQWVKLLDMENVKPSGSPIGILTEDDIEAAKIGDQANVPLDMPRVRYIRIKCLKNWSNNYNICFTELTFWGNDNEE
As for B4, under setting [4], the turnover number (kcat) came out at 0.046 s⁻¹ and the kcat/Km amounted to 354 M⁻¹ s⁻¹.
